The text below walks through data of publication PMC3854711, “Handling Uncertainty in Dynamic Models: The Pentose Phosphate Pathway in Trypanosoma brucei” (PLoS Computational Biology, 2013).

Substrate in data set [1]: Nc1ncnc2c1ncn2[C@@H]1O[C@H](COP(=O)(O)OP(=O)(O)O)[C@@H](O)[C@H]1O
The data set is described as follows: coupled spectrophotometric assay (HXK/G6PDH, NADP). Type of data set: biochemical, Trypanosoma brucei. To be noted: ribose 5-phosphate co-substrate (5 mM), 10 mM MgCl2, pH 7, 25°C, reverse direction, ribose production. From the text: coupled spectrophotometric assay (HXK/G6PDH, NADP) on T. brucei ribokinase | the enzyme could indeed work in the ribose production direction

Substrate in data set [2]: Nc1ncnc2c1ncn2[C@@H]1O[C@H](COP(=O)(O)OP(=O)(O)OP(=O)(O)O)[C@@H](O)[C@H]1O
In words: coupled spectrophotometric assay (PK/LDH, NADH). Particulars: ribose co-substrate (5 mM), 10 mM MgCl2, pH 7, 25°C, ribose 5-phosphate production direction. Format: biochemical, Trypanosoma brucei. An excerpt: coupled spectrophotometric assay (PK/LDH, NADH) on T. brucei ribokinase | enzyme kinetics of heterologously expressed T. brucei ribokinase were characterized

B1: T. brucei ribokinase (Trypanosoma brucei brucei TREU927) (protein)
chain: MSAAGVKSGNGCIADTPIVVVGACFVDYVAYVDHLPQVGESLRCRSFSKGFGGKGSNQAVCAGRLGASVSMVGAVGTDGDGADYIANFQRNGVQVSNVYRMENTSTGLAMIFVDSTTSHNEIVFSPNATGALTVDYLRKQSDNYNNFFGPKCRYIILQNEIPVETTLDVLKEAHTRGIYTVFNAAPAPSADEVAVVKPFLSYVSLFCVNEVEASMITGIDVKDTQSAILATEEMQKLGAHSVVTTLGGNGYVIGEKGKPPRHLPSITVKAVDSTGAGDCFVGAMVFYLSMGKSLEESCKRANMIAAISVQRPGTQSSYPTLDELPAEVKECKI
notes: N-terminal His-tag from pET28a(+), expressed in E. coli BL21(DE3), Ni chelate purified
By Km is commonly meant the substrate concentration at which the rate is half of its maximum. For the protein B1, the Km was determined as 250 µM in data set [1] and 240 µM in data set [2].
